# Publication doi:10.1101/2023.11.08.566319
# Target: T33-51 protein cage subunit B
# Test: native MS; SEC-purified co-expressed cage, 2 uM in 200 mM ammonium acetate pH 7.4; Q Exactive UHMR
# Conditions: scale: copies of A with 12 copies of B in the cage
substance,measurement,value
T33-51 protein cage subunit A (designed binder),stoichiometry N,11
